Measured values reported in US20140295495A1 (Biogen, published 2014).

T1: human antigen that binds to mAb1 (human, UniProt Q96FE5 42-538, limits assumed)
T1 sequence (looked up): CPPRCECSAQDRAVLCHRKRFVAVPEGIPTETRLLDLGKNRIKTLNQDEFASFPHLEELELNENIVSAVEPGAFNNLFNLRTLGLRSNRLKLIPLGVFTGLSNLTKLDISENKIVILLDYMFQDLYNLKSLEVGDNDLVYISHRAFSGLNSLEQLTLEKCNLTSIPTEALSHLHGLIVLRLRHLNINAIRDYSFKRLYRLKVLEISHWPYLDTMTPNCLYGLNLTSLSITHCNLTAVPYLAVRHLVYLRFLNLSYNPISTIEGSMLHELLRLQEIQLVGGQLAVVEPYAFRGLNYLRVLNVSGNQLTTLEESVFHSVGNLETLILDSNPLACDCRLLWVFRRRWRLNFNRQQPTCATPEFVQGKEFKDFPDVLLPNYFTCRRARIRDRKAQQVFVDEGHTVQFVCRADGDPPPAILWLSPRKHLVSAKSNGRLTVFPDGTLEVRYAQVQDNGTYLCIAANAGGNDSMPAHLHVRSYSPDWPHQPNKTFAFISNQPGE

B1: mAb1-C (mAb1, anti-LINGO-1 antibody Li81, aglycosyl human IgG1; preparation with 39% trisulfide at the LC5-HC5 linkage) (antibody, V domains shown)
VH: EVQLLESGGGLVQPGGSLRLSCAASGFTFSAYEMKWVRQAPGKGLEWVSVIGPSGGFTFYADSVKGRFTISRDNSKNTLYLQMNSLRAEDTAVYYCATEGDNDAFDIWGQGTTVTVSS
VL: DIQMTQSPATLSLSPGERATLSCRASQSVSSYLAWYQQKPGQAPRLLIYDASNRATGIPARFSGSGSGTDFTLTISSLEPEDFAVYYCQQRSNWPMYTFGQGTKLEIK
modifications: 39% trisulfide at the LC5-HC5 linkage (heavy-light interchain Cys linkage)
B2: mAb1-A (mAb1, anti-LINGO-1 antibody Li81, aglycosyl human IgG1; preparation with about 0.5% trisulfide at the LC5-HC5 linkage) (antibody, V domains shown)
VH: B1 VH
VL: B1 VL
modifications: about 0.5% trisulfide at the LC5-HC5 linkage (heavy-light interchain Cys linkage)
notes: also called mAb-A

Target: T1, human antigen that binds to mAb1
Assay: direct binding ELISA, antigen coated on the plate, detection with AP-anti-human Fab
Experimental: Plates were washed 3 times with 350 μL of PBS using a plate washer and blocked with 1% BSA, 0.1% ovalbumin, and 0.1% non-fat dry milk in Hank's balanced salt buffer containing 25 mM HEPES (pH 7.0) for 1 hour at room temperature. Plates were then washed again, and incubated for 1 h with a 3-fold dilution series set up for each test compound (50 μL/well, 8 dilutions) starting at 10 μg/mL and all in 0.1% BSA, 0.1% ovalbumin, and 0.1% non-fat dry milk in Hank's balanced salt buffer containing 25 mM HEPES (pH 7.0), and again washed. […] Plates were read at 405 nm on a Molecular Devices plate reader. EC₅₀ values for binding were calculated from the titration curve using prism software.

Binder	EC50 [nM]
B1	0.02
B2	0.02
